Data published in patent US20030186329A1, “Use of substrate subtraction libraries to distinguish enzyme specificities” (The Scripps Research Institute, priority 1998, published 2003).

Columns and labels:
t-PA = t-PA (Homo sapiens, UniProt P00750); experiment: Cleavage of maltose binding protein-QRGRSA-HY4 fusion protein by t-PA (SDS-PAGE); type: biochemical; settings: 150 nM enzyme, 16 hours at 25 C
Procedure: (§1) The fusion consists of maltose binding protein fused to the amino terminus of the HY4 gene product of Arabidopsis thaliana with a linking region in between coding for the amino acid sequence QRGRSA, which is cleaved by t-PA between R and S. The concentration of fusion protein in each lane is […] and the concentration of u-PA or […] is 150 nM. The reaction buffer contains 50 mM Tris pH 7.5, 0.1 M NaCl, 1 mM EDTA, and 0.01% Tween 20. Reactions were set up in a total volume of […] and allowed to incubate 16 hours at 25 C. and then stopped by the addition of […] of 5× loading buffer and separated by electrophoresis on 12% polyacrylamide. The gel was stained with Coomassie Brilliant Blue 30 minutes and de-stained overnight.

u-PA = target: T1, u-PA (Homo sapiens, UniProt P00749); experiment: Cleavage of maltose binding protein-QRGRSA-HY4 fusion protein by u-PA (SDS-PAGE); type: biochemical; settings: 150 nM enzyme, 16 hours at 25 C
T1 construct: purchased Jack Henkin (Abbott Laboratories)
Procedure: as §1

Chain of t-PA (P00750 36-562): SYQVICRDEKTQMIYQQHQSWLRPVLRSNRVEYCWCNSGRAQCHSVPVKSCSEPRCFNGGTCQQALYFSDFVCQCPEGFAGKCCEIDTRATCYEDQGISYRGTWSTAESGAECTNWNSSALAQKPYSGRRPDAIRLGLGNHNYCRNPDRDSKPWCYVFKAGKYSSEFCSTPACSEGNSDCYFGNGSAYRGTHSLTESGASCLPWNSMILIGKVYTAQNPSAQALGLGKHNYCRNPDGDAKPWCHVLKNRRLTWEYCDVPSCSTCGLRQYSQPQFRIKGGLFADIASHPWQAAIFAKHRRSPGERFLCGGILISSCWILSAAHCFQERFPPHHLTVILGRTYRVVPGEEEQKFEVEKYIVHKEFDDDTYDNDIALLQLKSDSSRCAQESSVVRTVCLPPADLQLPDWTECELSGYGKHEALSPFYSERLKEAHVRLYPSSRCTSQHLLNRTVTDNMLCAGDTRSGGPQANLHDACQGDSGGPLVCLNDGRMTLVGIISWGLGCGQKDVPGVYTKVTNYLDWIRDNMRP

cleavage of fusion protein by t-PA (t-PA): readily cleaved
cleavage of fusion protein by u-PA (u-PA): did not
B1: fusion protein: maltose binding protein fused to HY4 gene product of Arabidopsis thaliana with linking region QRGRSA (protein)
chain: QRGRSAMSGSVSGCGSGGCSIVWFRRDLRVEDNPALAAAVRAGPVIALFVWAPEEEGHYHPGRVSRWWLKNSLAQLDSSLRSLGTCLITKRSTDSVASLLDVVKSTGASQIFFNHLYDPLSLVRDHRAKDVLTAQGIAVRSFNADLLYEPWEVTDELGRPFSMFAAFWERCLSMPYDPESPLLPPKKIISGDVSKCVADPLVFEDDSEKGSNALLARAWSPGWSNGDKALTTFINGPLLEYSKNRRKADSATTSFLSPHLHFGEVSVRKVFHLVRIKQVAWANEGNEAGEESVNLFLKSIGLREYSRYISFNHPYSHERPLLGHLKFFPWAVDENYFKAWRQGRTGYPLVDAGMRELWATGWLHDRIRVVVSSFFVKVLQLPWRWGMKYFWDTLLDADLESDALGWQYITGTLPDSREFDRIDNPQFEGYKFDPNGEYVRRWLPELSRLPTDWIHHPWNAPESVLQAAGIELGSNYPLPIVGLDEAKARLHEALSQMWQLEAASRAAIENGSEEGLGDSAEVEEAPIEFPRDITMEETEPTRLNPNRRYEDQMVPSITSSLIRPEEDEESSLNLRNSVGDSRAEVPRNMVNTNQAQQRRAEPASNQVTAMIPEFNIRIVAESTEDSTAESSSSGRRERSGGIVPEWSPGYSEQFPSEENGIGGGSTTSSYLQNHHEILNWRRLSQTG
modifications: left off: large carriers
